The target in this assay is streptavidin (UniProt P22629). The assay can be described thus: polyaniline polymeric wire biosensor, streptavidin on NC membrane, pulse mode voltammetry.

Substance “biotin conjugate goat anti-mouse IgG (whole molecule), conjugated with magnetic composite Fe2O3/polyaniline particles (antibody)” had a resistance of 4.3 kΩ.

The values are drawn from patent US20110171749A1.
